± gives the uncertainty stated by the source.
Assay: protein stability index of a GFP-peptide fusion (yeast GPS) (PSI 1-4); higher = more stable; sorted into four equal gates, so the index is relative within each strain
Procedure, shortened: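 Mid-log yeast cultures in leucine-free medium, carrying a pooled plasmid library, were sorted into four equal gates by their GFP/Cherry fluorescence ratio. Each plasmid expressed Cherry along with GFP fused upstream of a tiled 17-residue yeast protein peptide. Plasmids recovered from each gate were PCR-amplified and Illumina-sequenced, with reads assigned to strains by barcodes. The protein stability index was obtained by summing each gate's read frequency weighted by its gate number.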

| Sequence | protein stability index (doa10∆) | protein stability index (pdr5∆) | protein stability index (san1∆) | protein stability index (ubr1∆) |
| --- | --- | --- | --- | --- |
| FAFWNLLVKFIKFFWNN [YLR018C/POM34] | 2.13 ± 0.23 | 2 ± 0.076 | 1.7 ± 0.13 | 1.36 ± 0.24 |
| DEPMTTFYKCVNCGHRW [RPC11] | 2.84 ± 0.16 | 2.5 ± 0.082 | 2.17 ± 0.15 | 2.82 ± 0.086 |
| KADDDSVTIISAGNDKM [ASC1] | 3.24 ± 0.091 | 2.92 ± 0.11 | 3.16 ± 0.04 | 3.04 ± 0.058 |
| SKLEGTINKAVQVKVLG [ESC2] | 1.57 ± 0.11 | 1.93 ± 0.12 | 1.66 ± 0.21 | 1.75 ± 0.086 |
| NPSITRLEEESSWQIYS [RRP4] | – | 3.07 ± 0.21 | – | 2.07 ± 0.097 |
| KENYPWELYTDFNEIVQ [POP3] | 2.42 ± 0.25 | – | 2.4 ± 0.16 | – |
| KDNDKNLKFLKNKDSLV [SRB4] | 3.48 ± 0.094 | 3.21 ± 0.12 | 3.28 ± 0.072 | 3.34 ± 0.068 |
| RHLRRTGKVSEFISIYS [RET1] | 1.48 ± 0.14 | 2.05 ± 0.13 | – | 1.37 ± 0.14 |
| LEPGCSVLLHHKTMSIV [RPT2] | 1.39 ± 0.067 | 1.58 ± 0.049 | 1.38 ± 0.087 | 1.61 ± 0.04 |
| VCLMQISTRERDYLVDT [RRP6] | 3.3 ± 0.22 | 3.4 ± 0.16 | 3.49 ± 0.088 | 2.99 ± 0.089 |
| NETNDKKRNPSKQNGSK [PRP28] | 3.21 ± 0.096 | 3.15 ± 0.066 | 3.02 ± 0.051 | 3.23 ± 0.039 |
| LRSTEYSKSFEQFKMVS [POP1] | 2.21 ± 0.089 | 2.63 ± 0.12 | 2.49 ± 0.094 | 2.52 ± 0.11 |
| EIAGLSPYERRLIDLIR [RPL36A] | 2.31 ± 0.088 | 2.37 ± 0.077 | 2.02 ± 0.14 | 2.29 ± 0.071 |
| PGGAASKSVPTPSLPIA [SNF5] | 2.9 ± 0.062 | 3.07 ± 0.056 | 2.97 ± 0.036 | 3.06 ± 0.041 |
| CTESTRENALYDYYALQ [SNF2] | 1.83 ± 0.078 | 2.25 ± 0.064 | 2.99 ± 0.048 | 2.91 ± 0.083 |
| HKKKRSNAAGADDAISM [SRB8] | 3.06 ± 0.11 | 2.45 ± 0.067 | 2.83 ± 0.18 | 2.75 ± 0.054 |
| LMSCISVGTDPMPIITF [RPB2] | 2.26 ± 0.086 | 1.71 ± 0.056 | 2.28 ± 0.05 | 2.18 ± 0.054 |
| VPTGGASSAAAGAAGAA [RPP2B] | 2.88 ± 0.11 | 3.04 ± 0.083 | 3.17 ± 0.07 | 2.97 ± 0.1 |
| GALKGASDGGLYVPHSE [RPL5] | 1.91 ± 0.083 | 1.88 ± 0.073 | 2.83 ± 0.088 | 2.67 ± 0.052 |
| LMTSHTKGDTSKATGAP [RTT102] | 3.12 ± 0.068 | 3.34 ± 0.079 | 3.27 ± 0.059 | 3.17 ± 0.06 |
| DHEFVLISLIMTTWRKL [YMR129W/POM152] | 1.3 ± 0.12 | 1.09 ± 0.075 | 1.1 ± 0.14 | 1.26 ± 0.07 |
| QQQLYGGNNNNNSTGIA [SWI1] | 3.12 ± 0.076 | 3.15 ± 0.066 | 3.25 ± 0.053 | 3.11 ± 0.045 |
| DDPSKVRLLCRSDGMGN [YLR335W/NUP2] | 2.94 ± 0.26 | 3.66 ± 0.19 | 2.98 ± 0.16 | 2.96 ± 0.15 |
| QRTTTGARVFGALKGAS [RPL5] | 2.88 ± 0.2 | 2.52 ± 0.2 | – | 3.05 ± 0.16 |
| EKIMILLVPLALLTKRL [CSN12] | 1.95 ± 0.045 | 1.47 ± 0.04 | 1.33 ± 0.069 | 1.3 ± 0.03 |
| VLCLTRSSYMLELVNTP [YCG1] | 1.58 ± 0.059 | 2.03 ± 0.2 | 1.77 ± 0.099 | 1.98 ± 0.087 |
| LHDEYLVSMRYPEDKKT [RPN3] | 2.81 ± 0.26 | – | – | – |

| Sequence | protein stability index (doa10∆) | protein stability index (pdr5∆) | protein stability index (san1∆) | protein stability index (ubr1∆) |
| --- | --- | --- | --- | --- |
| GHSQFTSHYQNYHPNAS [RPN4] | 2.56 ± 0.049 | 2.44 ± 0.044 | 2.15 ± 0.09 | 2.22 ± 0.038 |
| HIIQAKADAQREKALNE [RPL19A] | 3.29 ± 0.19 | 3.38 ± 0.094 | 3.33 ± 0.086 | – |
| KMENFEFLPLSLHILMI [SRB8] | 2.79 ± 0.077 | 2.8 ± 0.054 | 1.91 ± 0.076 | 2.85 ± 0.06 |
| FNLLILSLNKRIYDREP [YCG1] | 2.75 ± 0.11 | 2.41 ± 0.091 | 2.22 ± 0.13 | 2.33 ± 0.045 |
| SNGPRAAKKRRPAAKGK [RRP6] | 2.97 ± 0.12 | 3.2 ± 0.11 | 3.12 ± 0.08 | 3.17 ± 0.085 |
| QILQGICKNCSAILLSE [RPO31] | 2.17 ± 0.071 | 2.23 ± 0.061 | 2.26 ± 0.13 | 2.43 ± 0.069 |
| VKEIVLPLFYDLLNAAS [IRR1] | 2.36 ± 0.045 | 2.48 ± 0.052 | 2.78 ± 0.036 | 2.69 ± 0.049 |
| EEVVSNDEGVWDLVDER [PRP8] | 3.56 ± 0.073 | 3.47 ± 0.057 | 3.42 ± 0.07 | 3.49 ± 0.058 |
| SLVEVVFYRGMTMQVAV [FAS1] | 1.32 ± 0.06 | 1.88 ± 0.059 | 1.4 ± 0.11 | 1.99 ± 0.12 |
| PFHSHLLVPASDLINKD [FAS1] | 1.83 ± 0.03 | 2.15 ± 0.035 | 2.13 ± 0.048 | 1.96 ± 0.032 |
| TTAEPKAKRAKTGSAST [TAF14] | 3.2 ± 0.077 | 3.14 ± 0.093 | 3.34 ± 0.053 | 3.29 ± 0.053 |
| VQCHGSFATATCVTCHW [SIR2] | 2.28 ± 0.047 | 2.55 ± 0.046 | 2.26 ± 0.045 | 2.51 ± 0.031 |
| LDEIFSGCDSTKPSLRK [ECM29] | 2.57 ± 0.078 | 2.55 ± 0.06 | 2.65 ± 0.065 | 2.65 ± 0.038 |
| DMAILERYYELAFDKLN [ARP7] | 1.3 ± 0.09 | 1.6 ± 0.1 | 1.31 ± 0.16 | 1.54 ± 0.18 |
| KCIPKKGTVFQFEIPIS [POP4] | 1.44 ± 0.16 | 1.68 ± 0.087 | 1.49 ± 0.29 | 1.17 ± 0.052 |
| QQLRTWKRQISYFLKLL [SRB8] | 1.63 ± 0.049 | 2.18 ± 0.066 | 1.93 ± 0.088 | 1.91 ± 0.039 |
| CCINAAFLALVDAGIAL [RRP46] | 2.37 ± 0.078 | 2.88 ± 0.07 | 2.06 ± 0.061 | 2.62 ± 0.051 |
| LKKLEKEYELLTLQEDY [RPT3] | 2.37 ± 0.1 | 2.31 ± 0.13 | 2.6 ± 0.12 | 2.32 ± 0.052 |
| QLLIIEKEWENAIRIGE [SRP72] | 1.44 ± 0.052 | 1.69 ± 0.054 | 2.09 ± 0.12 | 2.21 ± 0.044 |
| IQISKLHYTPIEDLWQF [RPC82] | 2.26 ± 0.12 | 2.27 ± 0.13 | 2.09 ± 0.12 | 2.36 ± 0.15 |
| AISKKDLEEVKRFQVLY [SEC65] | 2.6 ± 0.16 | 3.02 ± 0.1 | 2.8 ± 0.29 | 2.3 ± 0.13 |
| PSSLNSDKIPYVAPTKK [SRB4] | 2.24 ± 0.073 | 2.59 ± 0.1 | 2.15 ± 0.086 | 2.09 ± 0.063 |
| GSVLLTLLNFVSNNVLR [ECM29] | 1.43 ± 0.054 | 1.31 ± 0.059 | 1.67 ± 0.1 | 2.03 ± 0.073 |
| CWLSNIDIQTQDLNQRF [RRI1] | 2.72 ± 0.11 | 3.23 ± 0.11 | 3.24 ± 0.072 | 3.17 ± 0.079 |
| NFKMLVLLATWNLEKWR [IRR1] | 1.32 ± 0.053 | 1.3 ± 0.071 | 1.5 ± 0.12 | 1.56 ± 0.038 |
| QTLSEKEYQCSAVIIDE [YIL149C/MLP2] | 2.64 ± 0.11 | 3.03 ± 0.098 | 3.15 ± 0.082 | 2.88 ± 0.054 |
| IACVLTVINEQQREAVR [RPL35A] | 1.73 ± 0.057 | 2.12 ± 0.068 | 2.18 ± 0.08 | 2.23 ± 0.066 |
